Numbering of substitutions follows the chain as printed.
B1: KP2-17 Fab/phage clone (anti-Band 3, Wrb) (Fab, V domains shown)
VH: EVQLLESGPGLVKPSETLSLTCAVSGYSISSGYGWTWIRQPPGKGLEWIGYIGGSRGNANYNPSLKSRVTISKDTSKNQFSLKLTSVTAADTAVYYCARDGGYGERYLEFWGQGALVTVSS
VL: AAELTQSPAFRSVTLKEKVTITCQASQSIGSSLHWYQQKPDQSPKLLIKFASQSISGVPSRFSGSGYGTDFTLTINSLEAEDAATYYCHQSSSFPWTFGQGTKVEIK
B2: KP2-19 Fab/phage clone (anti-Band 3, Wrb) (Fab, V domains shown)
VH: EVQLLESGPGLVKPSETLSLTCAVSGGSINGGYDWTWIRQSPGKGLQWIGWIYGSRGTTNYNPSLRNRVTISIDTSRNQFSLRLSSLTAADTAVYYCAKRVGYGNSYFDSWGQGVLVTVSS
VL: ELTLTQSPATLSLSPGERATLSCRASQSVSSRLAWYQQKPGQAPRLLIYDASSRVTGIPDRFSGSGSGTDFTLTISSLEPEDVGVYHCQQYNDLLPLTFGGGTKVEIK
B3: KP2-22 Fab/phage clone (anti-Band 3, Wrb) (Fab, V domains shown)
VH: EVQLLESGPGLVKPSETLSLTCAVSGDSISSGYGWSWIRQTPGKGLEWIGYIGGSRGNTNYNPSLKSRVTISKDTSKNQFSLKLSSVTAADTAVYYCARRAPYWGYSYLDYWGQGVLVTVSS
VL: ELTLTQSPATLSLAPGETATLSCRASQSIGTNLAWYHQKPGQSPKLLVHSAYVRATGIPDRFSGSGSRTDFTLTINSLQPEDVGVYHCQQYNDLLPLTFGGGTKVEIK
B4: KP2-23 Fab/phage clone (anti-Band 3, Wrb) (Fab, V domains shown)
VH: EVQLLESGPGLVKPSETLSLTCTVSGSSLSSAYGWNWIRQPPGKGLEWIGSIGGSRDNTNYNPSLKRRVTISKDTSKNQFSLKLKSVTAADTAVYYCAQRGAYGYSYFDYWGQGVLVAVSS
VL: ELTLTQSPATLSLSPGETATLSCRASQTVGRNLAWYQQRPGQAPNLLVHSAYFRATGIPDRFSGSGSGTDFTLTISSLEPEDAGVYHCQQYNDLLPLTFGGGTKVEIK
B5: KP2-24 Fab/phage clone (anti-Band 3, Wrb) (Fab, V domains shown)
VH: EVQLLESGPGLVKPSETLSLTCTVSGYSISSGYGWGWIRQSPGKGLEWIGYFGGSRGNTNYNPSLKSRVTISQDTSKNQFSLKLKSVTAADTGIYYCARDSGYSRRWVDYWGQGVLVTVSS
VL: B3 VL with E1A, L2A, T3E, I29V, S43P, V105I, E106D
B6: KP3-06 Fab/phage clone (anti-Band 3, Wrb) (Fab, V domains shown)
VH: EVQLLESGPGLVRPSETLSVTCDVSGGSISSASWSWIRQAPGKRLEWIGAISGSGSPTNVNPSLKSRVTLSVDTSKNQLSLKLRSMTAADTAVYYCARRGGYGNRYFDYWGQGVAVTVSS
VL: B4 VL with E1A, L2A, T3E, T28S, R31S, N32S, R39K, N45K, G68R, A83V
B7: KP3-07 Fab/phage clone (anti-Band 3, Wrb) (Fab, V domains shown)
VH: B4 VH with A118T
VL: ELVMTQSPATLSLSPGETATLSCRASQSIGSNLAWYQQKPGQAPKLLVHSANIRATGIPDRFIGSGSRTDFTLTISSLEPEDVGVYHCQQYNDFLPLTFGGGTKVEIK
B8: KP3-09 Fab/phage clone (anti-Band 3, Wrb) (Fab, V domains shown)
VH: EVQLLESGPGLVKPSETLSLTCAVSSLSLSSGFAWSWIRQPPGEGLEWIGSIGGSRDNVNYNPSLKSRVTISKDTSKNQFSLRLRSVTAADTAVYYCVTIHGYRNWYLDHWGQGVLVTVST
VL: AAELTQSPAILSLSPGETATLSCRASQSIGTSLAWYQQKPGQAPKLLVHSAYYRATDIPERFSGSGSRTDFTLTISSLEPEDVGVYHCQQYNDLLPLTFGGGTKVEIK
B9: KP3-12 Fab/phage clone (anti-Band 3, Wrb) (Fab, V domains shown)
VH: EVQLLESGPGLVKPSETLSLTCAVSGNSISSAYGWHWIRQVPGKGLEWIGSIGGSRGTTNYNPSLKSRGTISEDTSKNQFSLRLRSVSAADTAVYFCARDSGYSFRYFDFWGRGVLVTVSS
VL: B3 VL with E1A, L2A, T3E, S43P, D60N, V105I, E106D
B10: KP3-19 Fab/phage clone (anti-Band 3, Wrb) (Fab, V domains shown)
VH: EVQLLESGPGLVKPSETLSLTCAVSGGSLSGGYDWYWIRQSPRKGLEYIGYIYDSRGTTNYNPSLKNRVTISIDTSKNHFSLNLKSVTAADTAVYYCARRVGYGATYFDLWGQGVLVTVSS
VL: B7 VL with I29V, I53F, P59S, I63S, F94L
B11: KP3-20 Fab/phage clone (anti-Band 3, Wrb) (Fab, V domains shown)
VH: EVQLLESGPGLVKPSETLSLTCAVSGYSISSGFAWNWIRQTPGKGLEWIGYIGGSRDNTNYNPSLKSRVTISKDTSKNQFSLKLTSMTAADTAMYYCARRGAYGNSYFDFWGQGVPVTVSS
VL: B8 VL with I10T, I29V, T31S, S32N, L33V, D57G, E60D
B12: KP3-11 Fab/phage clone (anti-RHCE, Rh17) (Fab, V domains shown)
VH: EVQLLESGPGLVKPSETLSLTCGVSGASISNYWWSWIRQSPGKGLEWIGEIDGSTYSTHYNPSLKGRVTISKDASKNQLSLRLTSVTAADTAVYYCAREGQDPLAPTLATSGSGLDSWGRGLVVSVSS
VL: ELQMTQSPSSLSASLGDRVTITCRASENVNNYLHWYQQKPGKAPKLLIYAASTLQSGVPSRFSGSGSGTDFTLTISSLQPEDVATYYCQHSYGTPLTFGGGTKVEIK
B13: KP3-14 Fab/phage clone (anti-RHCE, Rh17) (Fab, V domains shown)
VH: B12 VH with V12G, S125T
VL: ELQMTQSPSALSASVGDRVTISCRASQDIYSNLAWYQQKPGKAPKLLIYGASRLQSGIPSRFSASGAGTEFTLTISGLQPEDSAVYYCQEVHRNPFTFGPGTKLDIK
B14: KP3-17 Fab/phage clone (anti-RHCE, Rh17) (Fab, V domains shown)
VH: EVQLLESGPGLLKPSETLSLTCAVSGAPISNYWWSWIRQSPGKGLEWIGEIDGSIYTTYYNPSLKSRVAISKDTSKNRLSLKLTSVTAADTAVYYCAREGQNPLVPTYGSTGFGLDFWGHGLAVTVSS
VL: AAELTQSPSSLSASVGDRVTITCQASQGISSWLAWYQQKPGKAPKLLIYKASSLQSGVPSRFSGSGSGTDFTLTISSLQSEDFATYYCQQYSSSPRTFGQGTKVEIK

Target: T1, Band 3 / glycophorin A (Wright b, Wrb epitope) on human red blood cells (human, UniProt P02724 20-150)
T1 construct: whole, on cells; also called Band3/GPA; AE1
T1 sequence 1: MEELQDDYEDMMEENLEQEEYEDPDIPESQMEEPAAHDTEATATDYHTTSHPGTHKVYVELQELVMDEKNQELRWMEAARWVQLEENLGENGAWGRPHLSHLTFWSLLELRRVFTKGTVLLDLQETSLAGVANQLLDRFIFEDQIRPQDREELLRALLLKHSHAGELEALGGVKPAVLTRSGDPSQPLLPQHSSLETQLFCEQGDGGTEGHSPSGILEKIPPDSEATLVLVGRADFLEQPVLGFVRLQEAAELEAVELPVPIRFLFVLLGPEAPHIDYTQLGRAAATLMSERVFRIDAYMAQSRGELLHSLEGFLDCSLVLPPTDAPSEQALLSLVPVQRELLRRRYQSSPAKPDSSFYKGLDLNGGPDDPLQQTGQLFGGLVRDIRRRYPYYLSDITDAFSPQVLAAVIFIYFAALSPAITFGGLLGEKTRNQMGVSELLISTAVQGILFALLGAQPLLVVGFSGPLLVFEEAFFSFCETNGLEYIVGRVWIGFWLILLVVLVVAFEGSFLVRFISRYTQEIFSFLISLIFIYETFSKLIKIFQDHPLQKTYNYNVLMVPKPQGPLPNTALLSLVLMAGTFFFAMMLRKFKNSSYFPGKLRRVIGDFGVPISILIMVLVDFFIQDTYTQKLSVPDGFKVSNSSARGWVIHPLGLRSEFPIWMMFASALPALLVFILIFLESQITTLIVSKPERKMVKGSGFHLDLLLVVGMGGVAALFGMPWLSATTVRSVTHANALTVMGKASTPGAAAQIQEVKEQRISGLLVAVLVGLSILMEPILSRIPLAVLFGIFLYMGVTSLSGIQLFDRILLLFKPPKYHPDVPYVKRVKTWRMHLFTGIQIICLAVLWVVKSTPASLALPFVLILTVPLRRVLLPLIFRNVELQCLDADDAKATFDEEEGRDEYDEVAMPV
T1 sequence 2: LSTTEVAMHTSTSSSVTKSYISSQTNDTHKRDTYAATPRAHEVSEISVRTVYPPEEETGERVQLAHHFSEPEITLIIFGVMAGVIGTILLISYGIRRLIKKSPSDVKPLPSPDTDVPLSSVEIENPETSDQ
Assay: Fab/phage binding assays on human RBCs incl. rare RBC types lacking conserved antigens
Procedure: (§1) An IgG Fab/phage display library was prepared from the peripheral blood lymphocytes of a hyperimmunized macaque using homologous human V-region oligonucleotides (Siegel D L, R. M., Lee H, Blancher A., Production of large repertories of macaque mAbs to human RBCs using phage display. Transfusion, 1999. 39(S10): p. 92S, which is incorporated herein by reference). Fab/phage specific for human RBCs were isolated by panning on intact human RBCs. Monoclonal Fab/phage were grown to produce antibodies for immunoassays and their corresponding DNA was extracted for sequencing. To identify target epitopes, antibodies were screened against RBCs of known serologic phenotypes, including rare cells lacking highly conserved antigens, using standard immunohematologic techniques (Roback, J. D., Technical Manual. 2014: American Association of Blood Banks (AABB), which is incorporated herein by reference.)
(§2) Using antibody phage display, we identified non-human-primate Fab antibody fragments to antigenic determinants on human RBCs. By panning phage libraries on human RBCs, we produced a Fab/phage preparation with >10⁷ RBC-specific clones capable of agglutinating human RBCs. By performing binding assays against rare RBC types lacking highly conserved antigens and epitopes, we identified the target antigens of >30 of these clones. At least 34 clones bound the Wright b (Wrb) epitope formed by a Band 3/GPA interaction, present on the RBCs of essentially 100% of the human population. The Wrb epitope, determined by the protein sequence of Band 3, is a site of association between Band 3 with GPA, and GPA expression is simultaneously required for its presence on the membrane (Huang C H, Reid M E, Xie S S, Blumenfeld 00. Human red blood cell Wright antigens: a genetic and evolutionary perspective on glycophorin A-band 3 interaction. Blood. 1996; 87(9):3942-3947). At least 3 other clones bound to a highly-conserved epitope Rh17(Hr0) on human RhCE protein, also present on essentially 100% of the human population. Both these targets are specific for erythroid lineage (Rojewski M T, Schrezenmeier H, Flegel W A. Tissue distribution of blood group membrane proteins beyond red cells: evidence from cDNA libraries. Transfus Apher Sci.

Row | Binder | binding result
1 | B1 | binds
2 | B2 | binds
3 | B3 | binds
4 | B4 | binds
5 | B5 | binds
6 | B6 | binds
7 | B7 | binds
8 | B8 | binds
9 | B9 | binds
10 | B10 | binds
11 | B11 | binds

Target: T2, human RhCE protein (RHCE; Rh17/Hr0 epitope) on human red blood cells (human, UniProt P18577 2-417)
T2 construct: Target on intact human RBCs of donors
T2 chain: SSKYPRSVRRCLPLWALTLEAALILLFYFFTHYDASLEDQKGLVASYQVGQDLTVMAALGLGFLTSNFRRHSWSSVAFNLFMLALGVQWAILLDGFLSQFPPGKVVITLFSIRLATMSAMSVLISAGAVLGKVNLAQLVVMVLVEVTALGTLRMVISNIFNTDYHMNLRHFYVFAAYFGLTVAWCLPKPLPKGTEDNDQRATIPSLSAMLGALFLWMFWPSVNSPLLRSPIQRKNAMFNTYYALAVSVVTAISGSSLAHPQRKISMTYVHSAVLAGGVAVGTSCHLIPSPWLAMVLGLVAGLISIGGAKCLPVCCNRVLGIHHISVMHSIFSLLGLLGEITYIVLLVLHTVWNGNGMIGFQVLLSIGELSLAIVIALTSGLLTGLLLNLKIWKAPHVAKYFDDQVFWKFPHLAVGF
Assay: as above
Procedure: as §1, §2

Row | Binder | binding result
12 | B12 | binds
13 | B13 | binds
14 | B14 | binds

Reference: patent US20210171652A1 (University of Pennsylvania, published 2021)
